According to the supplement of paper PMC9233669:
Fewer inactive variants are shown than the library holds.

How the values were obtained:
biotinyl-Leu-oxazolone = experiment: self-aminoacylation, catalytic enhancement (BLO) (fold over background); higher = more active; k-Seq, kA / k0A0; sequences stand for … in GGGAAUGGAUCCACAUCUACGAAUUC…UUCACUGCAGACUUGACGAAGCUG
Outline: (§1)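 Working in 50 μL HEPES/NaCl/KCl/MgCl2/CaCl2 buffer with 5% acetonitrile at pH 6.9–7.0, mutagenized RNA pools (0.43 μM; 21-nt variable region) were reacted with 2–1250 μM of each biotinyl-aminoacyl-oxazolone for 90 minutes at room temperature. Streptavidin capture followed, with quantification by triplicate qPCR and Illumina sequencing. Catalytic enhancement is reported as median kA over the uncatalyzed rate, the low-activity peak of a bimodal Gaussian fit to the data.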

biotinyl-Phe-oxazolone = experiment: self-aminoacylation, catalytic enhancement (BFO) (fold over background); higher = more active; k-Seq, kA / k0A0; sequences stand for … in GGGAAUGGAUCCACAUCUACGAAUUC…UUCACUGCAGACUUGACGAAGCUG
Outline: as §1

biotinyl-Met-oxazolone = experiment: self-aminoacylation, catalytic enhancement (BMO) (fold over background); higher = more active; k-Seq, kA / k0A0; sequences stand for … in GGGAAUGGAUCCACAUCUACGAAUUC…UUCACUGCAGACUUGACGAAGCUG
Outline: as §1

biotinyl-Val-oxazolone = experiment: self-aminoacylation, catalytic enhancement (BVO) (fold over background); higher = more active; k-Seq, kA / k0A0; sequences stand for … in GGGAAUGGAUCCACAUCUACGAAUUC…UUCACUGCAGACUUGACGAAGCUG
Outline: as §1

biotinyl-Trp-oxazolone = experiment: self-aminoacylation, catalytic enhancement (BWO) (fold over background); higher = more active; k-Seq, kA / k0A0; sequences stand for … in GGGAAUGGAUCCACAUCUACGAAUUC…UUCACUGCAGACUUGACGAAGCUG
Outline: as §1

biotinyl-Ile-oxazolone = experiment: self-aminoacylation, catalytic enhancement (BIO) (fold over background); higher = more active; k-Seq, kA / k0A0; sequences stand for … in GGGAAUGGAUCCACAUCUACGAAUUC…UUCACUGCAGACUUGACGAAGCUG
Outline: as §1

Sequence | self-aminoacylation (biotinyl-Leu-oxazolone) | self-aminoacylation (biotinyl-Phe-oxazolone) | self-aminoacylation (biotinyl-Met-oxazolone) | self-aminoacylation (biotinyl-Val-oxazolone) | self-aminoacylation (biotinyl-Trp-oxazolone) | self-aminoacylation (biotinyl-Ile-oxazolone)
AAUACCCUGGUGAUCGAGUGA [Fam2.1 aminoacylation ribozyme variant] | 6.6 | 13.1 | 5.35 | 3.02 | 6.66 | 3.23
AAUACCGUGGUCAUCGAGUGA [Fam2.1 aminoacylation ribozyme variant] | 4.83 | 26.4 | 5.12 | 2.81 | 5.14 | 2.89
AAUCACAUAGGUCAUCGGGUG [Fam2.2 aminoacylation ribozyme variant] | 7.16 | 49.2 | 7.73 | 4.18 | 6.45 | 4.88
AAUCACCUAGAUCAUCGGGUG [Fam2.2 aminoacylation ribozyme variant] | 2.55 | 9.55 | 2.41 | 2.68 | 3.99 | 2.75
AAUCACCUAGGCCAUCGGGUG [Fam2.2 aminoacylation ribozyme variant] | 3.01 | 25.5 | 3 | 3.86 | 5.04 | 2.88
AAUCACCUAGGGCAUCGGGUG [Fam2.2 aminoacylation ribozyme variant] | 3.93 | 28 | 3.75 | 3.49 | 5.34 | 3.31
AAUCACCUAGGUAAUCGGGUG [Fam2.2 aminoacylation ribozyme variant] | 3.17 | 14.1 | 2.67 | 2.08 | 4.18 | 2.64
AAUCACCUAGGUCAGCGGGUG [Fam2.2 aminoacylation ribozyme variant] | 4.16 | 28.9 | 4.61 | 2.9 | 4.58 | 4.05
AAUCACCUAGGUCAUCGGGAG [Fam2.2 aminoacylation ribozyme variant] | 1.51 | 1.94 | 1.89 | 2.17 | 1.55 | 1.67
AAUCACCUAGGUCAUCGGGUG [Fam2.2 aminoacylation ribozyme variant] | 9.15 | 42.9 | 7.92 | 5.65 | 8.58 | 5.67
AAUCACCUAGGUCAUCGGGUU [Fam2.2 aminoacylation ribozyme variant] | 6.71 | 11.5 | 5.39 | 3.65 | 5.39 | 4.1
AAUCACCUAGGUCAUCGGUUG [Fam2.2 aminoacylation ribozyme variant] | 1.66 | 5.05 | 1.74 | 1.29 | 1.69 | 1.44
AAUCACCUAGGUCUUCGGGUG [Fam2.2 aminoacylation ribozyme variant] | 5.09 | 46.9 | 4.54 | 3.98 | 6.75 | 3.79
AAUCACCUAUGUCAUCGGGUG [Fam2.2 aminoacylation ribozyme variant] | 4.9 | 23.4 | 4.23 | 3.29 | 6.14 | 3.28
AAUCCCCUGGUCAUCGAGUGA [Fam2.1 aminoacylation ribozyme variant] | 6.5 | 34.4 | 6.29 | 3.96 | 5.97 | 3.35
AAUCGCCUAGGUCAUCGGGUG [Fam2.2 aminoacylation ribozyme variant] | 9.78 | 72.9 | 10.4 | 8.02 | 10 | 6.97
AAUGACCUAGGUCAUCGGGUG [Fam2.2 aminoacylation ribozyme variant] | 4.85 | 26.1 | 4.56 | 3.56 | 5.22 | 3.66
AAUUUCGCUAAUAGUCGCAAG [Fam3.1 aminoacylation ribozyme variant] | 2.24 | 2.64 | 1.94 | 1.88 | 1.9 | 2.19
AAUUUUGCAAAUAGUCGCAAG [Fam3.1 aminoacylation ribozyme variant] | 1.51 | 2.73 | 2.02 | 2.31 | 2.48 | 2.33
AAUUUUGCUAACAGUCGCAAG [Fam3.1 aminoacylation ribozyme variant] | 1.87 | 3.07 | 1.28 | 1.58 | 1.88 | 1.88
AAUUUUGCUAAUACUCGCAAG [Fam3.1 aminoacylation ribozyme variant] | 1.47 | 1.5 | 1.01 | 1.35 | 1.03 | 1.5
AAUUUUGCUAAUAGUCGCAAA [Fam3.1 aminoacylation ribozyme variant] | 2.22 | 2.06 | 3.1 | 2.15 | 2.42 | 3
AAUUUUGCUAAUAGUCGCAAU [Fam3.1 aminoacylation ribozyme variant] | 2.91 | 2.09 | 2.88 | 2.13 | 2.09 | 2.95
ACACACUACAAGCAAUCGGUC [Fam1B.1 aminoacylation ribozyme variant] | 0.855 | 1.65 | 0.815 | 1.24 | 1.02 | 1.2
ACACACUUCAAGCAAUCGGUU [Fam1B.1 aminoacylation ribozyme variant] | 2.26 | 4.53 | 2.44 | 2.05 | 4.24 | 2.21
ACACACUUCAAGCACUCGGUC [Fam1B.1 aminoacylation ribozyme variant] | 1.62 | 1.49 | 1.42 | 1.3 | 1.77 | 1.44
